# Experimental data reported in paper PMC9174199, “Structural basis for MTA1c-mediated DNA N6-adenine methylation” (Nature Communications, 2022).
# T1: Tetrahymena thermophila MTA1 (TthMTA1), untagged
# T1 chain: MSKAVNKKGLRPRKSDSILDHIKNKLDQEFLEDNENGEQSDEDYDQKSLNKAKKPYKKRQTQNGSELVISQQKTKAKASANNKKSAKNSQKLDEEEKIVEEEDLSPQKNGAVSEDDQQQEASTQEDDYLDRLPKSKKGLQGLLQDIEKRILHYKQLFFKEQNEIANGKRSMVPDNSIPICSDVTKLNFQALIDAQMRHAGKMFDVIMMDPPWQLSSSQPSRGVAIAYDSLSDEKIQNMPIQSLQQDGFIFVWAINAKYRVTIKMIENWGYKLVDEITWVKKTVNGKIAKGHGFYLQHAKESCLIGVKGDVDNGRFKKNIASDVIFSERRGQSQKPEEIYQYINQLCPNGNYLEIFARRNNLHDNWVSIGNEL
# T2: GST-MTA1 (residues 171-372)
# T2 chain: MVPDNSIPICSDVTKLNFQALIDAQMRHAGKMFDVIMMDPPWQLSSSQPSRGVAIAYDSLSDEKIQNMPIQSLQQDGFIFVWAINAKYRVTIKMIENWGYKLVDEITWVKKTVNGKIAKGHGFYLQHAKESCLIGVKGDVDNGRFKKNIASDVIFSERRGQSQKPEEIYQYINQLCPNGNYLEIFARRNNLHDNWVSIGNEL
# Target: Paramecium tetraurelia MTA9 (PteMTA9), untagged
# Experiment: GST pull-down
# Conditions: parent: 100
row,percent of parent [%],Molecule
1,7,GST-MTA1 (residues 171-372) L295A
2,95,GST-MTA1 (residues 171-372) Q296A
3,12,GST-MTA1 (residues 171-372) Y294A
4,97,GST-MTA1 (residues 171-372) H297A

# Target: T1, Tetrahymena thermophila MTA1 (TthMTA1), …
# Experiment: GST pull-down
# Conditions: chain shown with the change;; parent: 100
row,Molecule,percent of parent [%]
1,His6GST-Tthp1 L173A (protein) MSLKKGKFQHNQSKSLWNYTLSPGWREEEVKILKSALQLFGIGKWKKIMESGCLPGKSIGQIYMQTQRLLGQQSLGDFMGLQIDLEAVFNQNMKKQDVLRKNNCIINTGDNPTKEERKRRIEQNRKIYGLSAKQIAEIKLPKVKKHAPQYMTLEDIENEKFTNLEILTHLYNAKAEIVRRLAEQGETIAQPSIIKSLNNLNHNLEQNQNSNSSTETKVTLEQSGKKKYKVLAIEETELQNGPIATNSQKKSINGKRKNNRKINSDSEGNEEDISLEDIDSQESEINSEEIVEDDEEDEQIEEPSKIKKRKKNPEQESEEDDIEEDQEEDELVVNEEEIFEDDDDDEDNQDSSEDDDDDED,78
2,His6GST-Tthp1 L170A (protein) MSLKKGKFQHNQSKSLWNYTLSPGWREEEVKILKSALQLFGIGKWKKIMESGCLPGKSIGQIYMQTQRLLGQQSLGDFMGLQIDLEAVFNQNMKKQDVLRKNNCIINTGDNPTKEERKRRIEQNRKIYGLSAKQIAEIKLPKVKKHAPQYMTLEDIENEKFTNLEILTHAYNLKAEIVRRLAEQGETIAQPSIIKSLNNLNHNLEQNQNSNSSTETKVTLEQSGKKKYKVLAIEETELQNGPIATNSQKKSINGKRKNNRKINSDSEGNEEDISLEDIDSQESEINSEEIVEDDEEDEQIEEPSKIKKRKKNPEQESEEDDIEEDQEEDELVVNEEEIFEDDDDDEDNQDSSEDDDDDED,47
3,His6GST-Tthp1 I177A (protein) MSLKKGKFQHNQSKSLWNYTLSPGWREEEVKILKSALQLFGIGKWKKIMESGCLPGKSIGQIYMQTQRLLGQQSLGDFMGLQIDLEAVFNQNMKKQDVLRKNNCIINTGDNPTKEERKRRIEQNRKIYGLSAKQIAEIKLPKVKKHAPQYMTLEDIENEKFTNLEILTHLYNLKAEAVRRLAEQGETIAQPSIIKSLNNLNHNLEQNQNSNSSTETKVTLEQSGKKKYKVLAIEETELQNGPIATNSQKKSINGKRKNNRKINSDSEGNEEDISLEDIDSQESEINSEEIVEDDEEDEQIEEPSKIKKRKKNPEQESEEDDIEEDQEEDELVVNEEEIFEDDDDDEDNQDSSEDDDDDED,78
4,His6GST-Tthp1 L167A; L170A (protein) MSLKKGKFQHNQSKSLWNYTLSPGWREEEVKILKSALQLFGIGKWKKIMESGCLPGKSIGQIYMQTQRLLGQQSLGDFMGLQIDLEAVFNQNMKKQDVLRKNNCIINTGDNPTKEERKRRIEQNRKIYGLSAKQIAEIKLPKVKKHAPQYMTLEDIENEKFTNLEIATHAYNLKAEIVRRLAEQGETIAQPSIIKSLNNLNHNLEQNQNSNSSTETKVTLEQSGKKKYKVLAIEETELQNGPIATNSQKKSINGKRKNNRKINSDSEGNEEDISLEDIDSQESEINSEEIVEDDEEDEQIEEPSKIKKRKKNPEQESEEDDIEEDQEEDELVVNEEEIFEDDDDDEDNQDSSEDDDDDED,0
5,His6GST-Tthp1 L167A; L170A; L173A; I177A (protein) MSLKKGKFQHNQSKSLWNYTLSPGWREEEVKILKSALQLFGIGKWKKIMESGCLPGKSIGQIYMQTQRLLGQQSLGDFMGLQIDLEAVFNQNMKKQDVLRKNNCIINTGDNPTKEERKRRIEQNRKIYGLSAKQIAEIKLPKVKKHAPQYMTLEDIENEKFTNLEIATHAYNAKAEAVRRLAEQGETIAQPSIIKSLNNLNHNLEQNQNSNSSTETKVTLEQSGKKKYKVLAIEETELQNGPIATNSQKKSINGKRKNNRKINSDSEGNEEDISLEDIDSQESEINSEEIVEDDEEDEQIEEPSKIKKRKKNPEQESEEDDIEEDQEEDELVVNEEEIFEDDDDDEDNQDSSEDDDDDED,0

# Next, values leading:
row,percent of parent [%],Molecule
1,0,His6GST-Tthp1 L167A; L170A; L173A (protein) MSLKKGKFQHNQSKSLWNYTLSPGWREEEVKILKSALQLFGIGKWKKIMESGCLPGKSIGQIYMQTQRLLGQQSLGDFMGLQIDLEAVFNQNMKKQDVLRKNNCIINTGDNPTKEERKRRIEQNRKIYGLSAKQIAEIKLPKVKKHAPQYMTLEDIENEKFTNLEIATHAYNAKAEIVRRLAEQGETIAQPSIIKSLNNLNHNLEQNQNSNSSTETKVTLEQSGKKKYKVLAIEETELQNGPIATNSQKKSINGKRKNNRKINSDSEGNEEDISLEDIDSQESEINSEEIVEDDEEDEQIEEPSKIKKRKKNPEQESEEDDIEEDQEEDELVVNEEEIFEDDDDDEDNQDSSEDDDDDED
2,48,His6GST-Tthp1 L167A (protein) MSLKKGKFQHNQSKSLWNYTLSPGWREEEVKILKSALQLFGIGKWKKIMESGCLPGKSIGQIYMQTQRLLGQQSLGDFMGLQIDLEAVFNQNMKKQDVLRKNNCIINTGDNPTKEERKRRIEQNRKIYGLSAKQIAEIKLPKVKKHAPQYMTLEDIENEKFTNLEIATHLYNLKAEIVRRLAEQGETIAQPSIIKSLNNLNHNLEQNQNSNSSTETKVTLEQSGKKKYKVLAIEETELQNGPIATNSQKKSINGKRKNNRKINSDSEGNEEDISLEDIDSQESEINSEEIVEDDEEDEQIEEPSKIKKRKKNPEQESEEDDIEEDQEEDELVVNEEEIFEDDDDDEDNQDSSEDDDDDED

# Target: T2, GST-MTA1 (residues 171-372)
# Experiment: GST pull-down
# Conditions: chain shown with the change;; parent: 100
row,percent of parent [%],Molecule
1,45,"Paramecium tetraurelia MTA9 (PteMTA9), untagged V219A (protein) MGKNQRESLRMRLRYNEPGSENKRINYFKLNQGYDITEDDSEYMDEQDSYKAFKKIRKYKTKSKEDKVTCDNLEVLLQWKGSINCQSYETDQKKIVVLKKILGTDLSQYAKGVQGIFIDNLFKKDLKNLDISKKLISNGILFIWSDKSLINEILETMENKGFTYIENLVVVQLSLEQALEELNKHMKIEQTEDAVLDNLDFLQQKVQVKDLILHRPSKALNQSKQVLIMFRKFDEQKSQLELRHQRTPDVLFDIVNNGKSCLKTKEYIYQTIETLLPKSQLMEIFAQKDQPRKGWISVCENK"
2,0,"Paramecium tetraurelia MTA9 (PteMTA9), untagged Y164A (protein) MGKNQRESLRMRLRYNEPGSENKRINYFKLNQGYDITEDDSEYMDEQDSYKAFKKIRKYKTKSKEDKVTCDNLEVLLQWKGSINCQSYETDQKKIVVLKKILGTDLSQYAKGVQGIFIDNLFKKDLKNLDISKKLISNGILFIWSDKSLINEILETMENKGFTAIENLVVVQLSLEQALEELNKHMKIEQTEDAVLDNLDFLQQKVQVKDLILHRPSKVLNQSKQVLIMFRKFDEQKSQLELRHQRTPDVLFDIVNNGKSCLKTKEYIYQTIETLLPKSQLMEIFAQKDQPRKGWISVCENK"
3,73,"Paramecium tetraurelia MTA9 (PteMTA9), untagged L220A (protein) MGKNQRESLRMRLRYNEPGSENKRINYFKLNQGYDITEDDSEYMDEQDSYKAFKKIRKYKTKSKEDKVTCDNLEVLLQWKGSINCQSYETDQKKIVVLKKILGTDLSQYAKGVQGIFIDNLFKKDLKNLDISKKLISNGILFIWSDKSLINEILETMENKGFTYIENLVVVQLSLEQALEELNKHMKIEQTEDAVLDNLDFLQQKVQVKDLILHRPSKVANQSKQVLIMFRKFDEQKSQLELRHQRTPDVLFDIVNNGKSCLKTKEYIYQTIETLLPKSQLMEIFAQKDQPRKGWISVCENK"

# Target: T1, Tetrahymena thermophila MTA1 (TthMTA1), …
# Experiment: GST pull-down, gray scanning of bound MTA1 band
# Conditions: chain shown with the change;; parent: 100
row,percent of parent [%],Molecule
1,0,His6GST-Tthp2 H39A (protein) MKKNGKSQNQPLDFTQYAKNMRKDLSNQDICLEDGALNASYFLTKKGQYWTPLNQKALQRGIELFGVGNWKEINYDEFSGKANIVELELRTCMILGINDITEYYGKKISEEEQEEIKKSNIAKGKKENKLKDNIYQKLQQMQ
2,0,His6GST-Tthp2 R22A (protein) MKKNGKSQNQPLDFTQYAKNMAKDLSNQDICLEDGALNHSYFLTKKGQYWTPLNQKALQRGIELFGVGNWKEINYDEFSGKANIVELELRTCMILGINDITEYYGKKISEEEQEEIKKSNIAKGKKENKLKDNIYQKLQQMQ
3,0,His6GST-Tthp2 Y41A (protein) MKKNGKSQNQPLDFTQYAKNMRKDLSNQDICLEDGALNHSAFLTKKGQYWTPLNQKALQRGIELFGVGNWKEINYDEFSGKANIVELELRTCMILGINDITEYYGKKISEEEQEEIKKSNIAKGKKENKLKDNIYQKLQQMQ
4,0,His6GST-Tthp2 Y17A (protein) MKKNGKSQNQPLDFTQAAKNMRKDLSNQDICLEDGALNHSYFLTKKGQYWTPLNQKALQRGIELFGVGNWKEINYDEFSGKANIVELELRTCMILGINDITEYYGKKISEEEQEEIKKSNIAKGKKENKLKDNIYQKLQQMQ
5,50,His6GST-Tthp2 S26A (protein) MKKNGKSQNQPLDFTQYAKNMRKDLANQDICLEDGALNHSYFLTKKGQYWTPLNQKALQRGIELFGVGNWKEINYDEFSGKANIVELELRTCMILGINDITEYYGKKISEEEQEEIKKSNIAKGKKENKLKDNIYQKLQQMQ
6,77,His6GST-Tthp2 D24A (protein) MKKNGKSQNQPLDFTQYAKNMRKALSNQDICLEDGALNHSYFLTKKGQYWTPLNQKALQRGIELFGVGNWKEINYDEFSGKANIVELELRTCMILGINDITEYYGKKISEEEQEEIKKSNIAKGKKENKLKDNIYQKLQQMQ
